Read-outs that look alike come from different tables or passages of the source.
T1: human OX40 on cells (CHO-K1/hu OX40) (human, UniProt P43489 29-277)
T1 sequence (looked up): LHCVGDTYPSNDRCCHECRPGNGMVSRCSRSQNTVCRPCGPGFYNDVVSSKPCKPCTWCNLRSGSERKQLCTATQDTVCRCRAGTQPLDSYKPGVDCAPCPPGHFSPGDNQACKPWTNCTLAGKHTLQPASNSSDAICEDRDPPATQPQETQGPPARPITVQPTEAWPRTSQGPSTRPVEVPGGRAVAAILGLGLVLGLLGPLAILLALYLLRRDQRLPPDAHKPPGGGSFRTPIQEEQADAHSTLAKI

T2: human OX40 protein (Acro biosystem, #OX0-H5224) (human, UniProt P43489 29-216)
T2 construct: Bought recombinant protein
T2 sequence (looked up): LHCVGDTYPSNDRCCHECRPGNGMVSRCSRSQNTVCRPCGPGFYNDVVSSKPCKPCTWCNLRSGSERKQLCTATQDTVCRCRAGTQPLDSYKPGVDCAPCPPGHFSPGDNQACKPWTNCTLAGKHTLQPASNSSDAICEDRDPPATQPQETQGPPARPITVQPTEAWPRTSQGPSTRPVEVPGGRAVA


Legend:
[1] = biological target: T1, human OX40 on cells (CHO-K1/hu OX40); assay: cell-based or functional assay
[2] = biological target: T1, human OX40 on cells (CHO-K1/hu OX40); assay: FACS, CHO-K1/hu OX40 cells
Method in brief: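 Binding of anti-human OX40 HCAb antibodies measured by flow cytometry on CHO-K1 cells stably overexpressing human OX40. Cells incubated with 3-fold serially diluted antibodies 1 h at 4 °C in the dark, washed, then secondary staining 30 min at 4 °C; fluorescence read by FACS.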

[3] = biological target: T2, human OX40 protein (Acro biosystem, …); assay: ELISA, coated human OX40 protein
Experimental: This example is intended to investigate the in vitro binding activity of the anti-OX40 HCAb monoclonal antibodies prepared in Example 1 to human and cynomolgus monkey OX40 proteins. The antibody binding assay at the protein level was performed using a human OX40 protein (Acro biosystem, #OX0-H5224) and a cynomolgus monkey OX40 protein (Novoprotein, #CB17). Briefly, a 384-well plate (PerkinElmer, #6007509) was coated with 1 μg/mL human OX40 protein and a cynomolgus monkey OX40 protein dissolved in PBS at 20 μL/well, and incubated at 4° C. overnight. The next day, the 384-well plate was washed three times with PBS containing 0.05% Tween (MEDICAGO, #09-9410-100), and blocked with PBS containing 2% milk (Bio-Rad, #170-6404) at 37° C. for 1 h. […] The plate was added with a stop buffer (BBI life sciences, #E661006-0200) at 20 μL/well, and read for OD₄₅₀₋₆₅₀ values using a plate reader (Molecular Devices, model: SpectraMax Plus). The values were analyzed with Graphad 8.0 and plotted.

[4] = biological target: T3, cynomolgus monkey OX40 protein (Novoprotein, #CB17) (cynomolgus monkey); assay: ELISA, coated cyno OX40 protein
T3 construct: Bought recombinant protein; also called cyno OX40

[5] = biological target: T2, human OX40 protein (Acro biosystem, …); assay: ELISA, coated human OX40 protein; remark: listed apart in the source
[6] = biological target: T1, human OX40 on cells (CHO-K1/hu OX40); assay: FACS, blocking of biotin-human OX40L on CHO-K1/hu OX40 cells
[7] = biological target: T1, human OX40 on cells (CHO-K1/hu OX40); assay: FACS, CHO-K1/hu OX40 cells; remark: listed apart in the source
Experimental: This example is intended to investigate the in vitro binding activity of OX40×TAA bispecific antibodies obtained in Example 9 to human OX40. The antibody binding assay at the cellular level was performed using a CHO-K1 cell strain overexpressing human OX40 (CHO-K1/hu OX40). Briefly, CHO-K1/hu OX40 cells were digested, resuspended in an F12K complete medium, and washed with PBS, and the cell density was adjusted to 1×10⁶ cells/ml with PBS. The cells were seeded in a 96-well V-bottom plate (Corning, #3894) at 100 μL/well, followed by the addition of test antibodies diluted in a 3-fold gradient at concentrations that were 2 times the final concentrations at 100 μL/well. The cells were incubated at 4° C. for 1 h away from light. Thereafter, the cells in each well were rinsed twice with 100 μL of pre-cooled PBS, and centrifuged at 500 g at 4° C. for 5 min, and then the supernatant was discarded. […] The plate was incubated away from light at 4° C. for 30 min. The cells in each well were rinsed twice with 100 μL of pre-cooled PBS, and centrifuged at 500 g at 4° C. for 5 min, and then the supernatant was discarded. Finally, the cells in each well were resuspended in 200 μL of pre-cooled PBS, and the fluorescence signal values were read using NovoCyte flow cytometer (ACEA Biosciences).

[8] = biological target: T4, human PD-L1 on MDA-MB-231 cells (human, UniProt Q9NZQ7 19-290); assay: FACS, MDA-MB-231 cells (human PD-L1)
T4 construct: whole, on cells
Experimental: This example is intended to investigate the in vitro binding activity of OX40×TAA bispecific antibodies obtained in Example 9 to tumor-associated antigens (TAAs). […] Briefly, those cells were digested, resuspended in a complete medium, and washed with PBS, and the cell density was adjusted to 1×10⁶ cells/ml with PBS. The cells were seeded in a 96-well V-bottom plate (Corning, #3894) at 100 μL/well, and centrifuged, and then the supernatant was discarded. Then, the test antibodies diluted in a 3-fold gradient were added at 100 μL/well. The cells were incubated at 4° C. for 1 h away from light. Thereafter, the cells in each well were rinsed twice with 100 μL of pre-cooled PBS, and centrifuged at 500 g at 4° C. for 5 min, and then the supernatant was discarded. […] The plate was incubated away from light at 4° C. for 30 min. The cells in each well were rinsed twice with 100 μL of pre-cooled PBS, and centrifuged at 500 g at 4° C. for 5 min, and then the supernatant was discarded. Finally, the cells in each well were resuspended in 200 μL of pre-cooled PBS, and the fluorescence signal values were read using NovoCyte flow cytometer (ACEA Biosciences).

T4 sequence (Q9NZQ7 19-290): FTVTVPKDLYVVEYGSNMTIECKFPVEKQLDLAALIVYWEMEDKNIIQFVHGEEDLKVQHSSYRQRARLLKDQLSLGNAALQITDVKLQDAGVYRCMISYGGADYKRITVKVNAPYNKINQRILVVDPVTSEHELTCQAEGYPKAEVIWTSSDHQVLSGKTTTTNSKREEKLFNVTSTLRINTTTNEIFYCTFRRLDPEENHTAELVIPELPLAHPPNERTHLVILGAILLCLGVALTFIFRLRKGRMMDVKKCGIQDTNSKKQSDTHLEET

| EC50, HEK293/OX40/NF-kb luciferase reporter [1] [nM] | Maximum fluorescence signal value, HEK293/OX40/NF-kb luciferase reporter [1] [luminescence] | EC50 [2] [nM] | Maximum MFI [2] [MFI] | EC50 [3] [nM] | EC50 [4] [nM] | Maximum OD [4] [OD] | EC50 [5] [nM] | Maximum OD [5] [OD] | IC50 [6] [nM] | Maximum inhibition rate (%) [6] [%] | EC50 [7] [nM] | Maximum MFI [7] [MFI] | EC50 [8] [nM] | Binder |
| --- | --- | --- | --- | --- | --- | --- | --- | --- | --- | --- | --- | --- | --- | --- |
| 4.66 | 141000 | 3.18 | 2240 | < 0.05 | 0.0452 | 1.74 | 0.0268 | 1.41 | 59.9 | 19 |  |  |  | PR002055 (antibody, human IgG1, V domains shown, no light chain; also called anti-OX40 HCAb antibody) VH: EVQLLESGGGLVQPGGSLRLSCAASGLTFSSYAMSWVRQAPGKGLEWISAISGGGGSTYYADSVRGRFTISRDNSKNTLYLQMNSLRAEDTAVYYCANGMTGSTDVDYWGQGTLVTVSS |
|  |  |  |  |  |  |  |  |  |  |  | 3.98 | 287000 | 1.04 | PR003789 (bispecific antibody, human IgG1, kappa, L234A L235A, IgG-VH tetravalent symmetric structure: PR000265 IgG (anti-PD-L1) with the VH of PR002067 at the C-terminus via linker H1_15; human IgG1 Fc (L234A, L235A, P329G); also called PD-L1xOX40 bispecific antibody) light: DIQMTQSPSTLSASVGDRVTVTCRASQSIYIWLAWYQQKPGKAPNLLIYKASSLETGVPSRFSGSGSGTEFTLTISSLQPDDFATYYCQQYYGSSRTFGQGTKVEIKRTVAAPSVFIFPPSDEQLKSGTASVVCLLNNFYPREAKVQWKVDNALQSGNSQESVTEQDSKDSTYSLSSTLTLSKADYEKHKVYACEVTHQGLSSPVTKSFNRGEC heavy: EVQLVESGGGLVQPGGSLRLSCAASGFTFSSYWMSWVRQAPGKGLEWVANIKQEGSEKYYVDSVKGRFTISRDNAKNSLYLQMNSLRAEDTAVYYCARDRAVAGAFDIWGQGTMVTVSSASTKGPSVFPLAPSSKSTSGGTAALGCLVKDYFPEPVTVSWNSGALTSGVHTFPAVLQSSGLYSLSSVVTVPSSSLGTQTYICNVNHKPSNTKVDKKVEPKSCDKTHTCPPCPAPEAAGGPSVFLFPPKPKDTLMISRTPEVTCVVVDVSHEDPEVKFNWYVDGVEVHNAKTKPREEQYNSTYRVVSVLTVLHQDWLNGKEYKCKVSNKALGAPIEKTISKAKGQPREPQVYTLPPSREEMTKNQVSLTCLVKGFYPSDIAVEWESNGQPENNYKTTPPVLDSDGSFFLYSKLTVDKSRWQQGNVFSCSVMHEALHNHYTQKSLSLSPGAEPKSSDKTHTPPPPPEVQLLESGGGLVQPGGSLRLSCAASGFTFSSYAMSWVRQAPGKGLEWVSAISGRGGSTFYADSVRGRFTISRDNSKNTLYLQMNSLRAEDTAMYYCVDGTTGTTDVDYWGQGTLVTVSS |

From patent publication US20230295324A1 (published 2023)
